Measured values: the supplement of paper PMC11246515
± gives the standard deviation of the averaged measurements.

Assay: total protein half-life in vivo (active degradation + dilution); higher = more stable protein
[1] = E. coli NCM3722 delta-clpP delta-lon delta-hslV, growth: N-lim chemostat, doubling time 6 h
[2] = E. coli NCM3722 delta-clpP, growth: N-lim chemostat, doubling time 6 h
[3] = E. coli NCM3722 delta-hslV, growth: N-lim chemostat, doubling time 6 h
[4] = wild type E. coli NCM3722, growth: C-lim chemostat, doubling time 3 h
[5] = wild type E. coli NCM3722, growth: C-lim chemostat, doubling time 6 h
[6] = wild type E. coli NCM3722, growth: N-lim chemostat, doubling time 6 h
[7] = wild type E. coli NCM3722, growth: P-lim chemostat, doubling time 6 h
[8] = E. coli NCM3722 delta-smpB, growth: N-lim chemostat, doubling time 6 h
[9] = wild type E. coli NCM3722, growth: N-lim chemostat, doubling time 12 h
[10] = wild type E. coli NCM3722, growth: P-lim chemostat, doubling time 12 h
[11] = E. coli NCM3722 delta-lon, growth: N-lim chemostat, doubling time 6 h
[12] = wild type E. coli NCM3722, growth: C-lim chemostat, doubling time 12 h

| Sequence | total protein half-life in vivo [1] | total protein half-life in vivo [2] | total protein half-life in vivo [3] | total protein half-life in vivo [4] | total protein half-life in vivo [5] | total protein half-life in vivo [6] | total protein half-life in vivo [7] | total protein half-life in vivo [8] | total protein half-life in vivo [9] | total protein half-life in vivo [10] | total protein half-life in vivo [11] | total protein half-life in vivo [12] |
| --- | --- | --- | --- | --- | --- | --- | --- | --- | --- | --- | --- | --- |
| MLAFCRSSLKSKKYIIILLALAAIAGLGTHAAWSSNGLPRIDNKTLARLAQQHPVVVLFRHAERCDRSTNQCLSDKTGITVKGTQDARELGNAFSADIPDFDLYSSNTVRTIQSATWFSAGKKLTVDKRLLQCGNEIYSAIKDLQSKAPDKNIVIFTHNHCLTYIAKDKRDATFKPDYLDGLVMHVEKGKVYLDGEFVNH | > 8 h | 5.63 h | 4.99 ± 1.1 h | 3 ± 1.2 h | 4.93 ± 1.4 h | 4.21 ± 2.1 h | 5.09 ± 0.5 h | – | – | – | – | – |
| MEFAFYICGLIAILATLRVITHTNPVHALLYLIISLLAISGVFFSLGAYFAGALEIIVYAGAIMVLFVFVVMMLNLGGSEIEQERQWLKPQVWIGPAILSAIMLVVIVYAILGVNDQGIDGTPISAKAVGITLFGPYVLAVELASMLLLAGLVVAFHVGREERAGEVLSNRKDDSAKRKTEEHA [P0AFE0] | – | – | 4.21 h | – | 6.7 h | 6.07 h | 6.02 h | 6.02 h | 11.5 h | 13.8 ± 2.9 h | – | – |
| MMMGEVQSLPSAGLHPALQDALTLALAARPQEKAPGRYELQGDNIFMNVMTFNTQSPVEKKAELHEQYIDIQLLLNGEERILFGMAGTARQCEEFHHEDDYQLCSTIDNEQAIILKPGMFAVFMPGEPHKPGCVVGEPGEIKKVVVKVKADLMA | 5.11 ± 0.56 h | 5.65 h | 4.7878 ± 0.0042 h | 2.61 ± 0.37 h | 5.51 ± 0.72 h | – | 4.2 ± 0.51 h | 4.8 ± 0.44 h | 7.67 h | 10.3 ± 0.17 h | 5.28 h | 9.27 ± 2.2 h |
| MIVLPRRLSDEVADRVRALIDEKNLEAGMKLPAERQLAMQLGVSRNSLREALAKLVSEGVLLSRRGGGTFIRWRHDTWSEQNIVQPLKTLMADDPDYSFDILEARYAIEASTAWHAAMRATPGDKEKIQLCFEATLSEDPDIASQADVRFHLAIAEASHNIVLLQTMRGFFDVLQSSVKHSRQRMYLVPPVFSQLTEQHQAVIDAIFAGDADGARKAMMAHLSFVHTTMKRFDEDQARHARITRLPGEHNEHSREKNA [P0ACL7] | 5.57 h | 2.72 h | – | 1.28 h | 2.86 ± 0.55 h | – | – | 2.04 h | 2.87 h | – | – | 2.72 h |
| MPTKPPYPREAYIVTIEKGKPGQTVTWYQLRADHPKPDSLISEHPTAQEAMDAKKRYEDPDKE [P0AAN5] | – | 5.03 ± 0.57 h | 5.08 ± 0.48 h | 3.69 h | 3.08 h | 4.1 ± 0.042 h | 5.3 h | 4.72 ± 0.16 h | 8.6 ± 1.8 h | 9.63 ± 1.6 h | 5.38 ± 1.4 h | 7.61 h |
| MPRLASAVLPLCSQHPGQCGLFPLEKSLDAFAARYRLAEMAEHTLDVQYYIWQDDMSGRLLFSALLAAAKRGVRVRLLLDDNNTPGLDDILRLLDSHPRIEVRLFNPFSFRLLRPLGYITDFSRLNRRMHNKSFTVDGVVTLVGGRNIGDAYFGAGEEPLFSDLDVMAIGPVVEDVADDFARYWYCKSVSPLQQVLDVPEGEMADRIELPASWHNDAMTHRYLRKMESSPFINHLVDGTLPLIWAKTRLLSDDPAKGEGKAKRHSLLPQRLFDIMGSPSERIDIISSYFVPTRAGVAQLLRMVRKGVKIAILTNSLAANDVAVVHAGYARWRKKLLRYGVELYELKPTREQSSTLHDRGITGNSGASLHAKTFSIDGKTVFIGSFNFDPRSTLLNTEMGFVIESETLAQLIDKRFIQSQYDAAWQLRLDRWGRINWVDRHAKKEIILKKEPATSFWKRVMVRLASILPVEWLL | 5.59 ± 0.72 h | 5.95 ± 0.048 h | 5.92 ± 1.4 h | 2.78 ± 0.11 h | 5.38 ± 0.64 h | 4.78 ± 0.52 h | 5.59 ± 0.044 h | 5.1 ± 0.35 h | 11.1 ± 0.75 h | – | 5.31 ± 0.46 h | – |
| MKAKAILLASVLLVGCQSTGNVQQHAQSLSAAGQGEAAKFTSQARWMDDGTSIAPDGDLWAFIGDELKMGIPENDRIREQKQKYLRNKSYLHDVTLRAEPYMYWIAGQVKKRNMPMELVLLPIVESAFDPHATSGANAAGIWQIIPSTGRNYGLKQTRNYDARRDVVASTTAALNMMQRLNKMFDGDWLLTVAAYNSGEGRVMKAIKTNKARGKSTDFWSLPLPQETKQYVPKMLALSDILKNSKRYGVRLPTTDESRALARVHLSSPVEMAKVADMAGISVSKLKTFNAGVKGSTLGASGPQYVMVPKKHADQLRESLASGEIAAVQSTLVADNTPLNSRVYTVRSGDTLSSIASRLGVSTKDLQQWNKLRGSKLKPGQSLTIGAGSSAQRLANNSDSITYRVRKGDSLSSIAKRHGVNIKDVMRWNSDTANLQPGDKLTLFVKNNNMPDS [P0AEZ7] | 3.87 ± 0.74 h | – | – | – | – | – | – | – | – | – | – | – |
| MTTKKADYIWFNGEMVRWEDAKVHVMSHALHYGTSVFEGIRCYDSHKGPVVFRHREHMQRLHDSAKIYRFPVSQSIDELMEACRDVIRKNNLTSAYIRPLIFVGDVGMGVNPPAGYSTDVIIAAFPWGAYLGAEALEQGIDAMVSSWNRAAPNTIPTAAKAGGNYLSSLLVGSEARRHGYQEGIALDVNGYISEGAGENLFEVKDGVLFTPPFTSSALPGITRDAIIKLAKELGIEVREQVLSRESLYLADEVFMSGTAAEITPVRSVDGIQVGEGRCGPVTKRIQQAFFGLFTGETEDKWGWLDQVNQ [P0AB80] | 4.699 ± 0.033 h | 4.25 ± 1.3 h | 3.48 ± 0.06 h | 3.24 ± 0.089 h | 5.63 ± 0.072 h | 3.49 ± 0.13 h | 5.65 ± 0.27 h | 3.75 ± 0.1 h | 5.36 ± 0.066 h | 10.9 ± 0.95 h | 4.94 ± 1.1 h | 10.9 ± 0.13 h |
